Assay results: publication PMC11931385, “Structural and functional analysis of cancer-associated missense variants in the retinoblastoma protein pocket domain” (The Journal of Biological Chemistry, 2025)
Where a chain is given by its changes, count along the chain named. Names and notes keep the numbering of the source. No end group written: not given here. TMR = tetramethyl rhodamine dye

T1: Rb^P P595L (human, UniProt P06400 380-788, P595L)
T1 construct: also called variant 35
T1 sequence (looked up): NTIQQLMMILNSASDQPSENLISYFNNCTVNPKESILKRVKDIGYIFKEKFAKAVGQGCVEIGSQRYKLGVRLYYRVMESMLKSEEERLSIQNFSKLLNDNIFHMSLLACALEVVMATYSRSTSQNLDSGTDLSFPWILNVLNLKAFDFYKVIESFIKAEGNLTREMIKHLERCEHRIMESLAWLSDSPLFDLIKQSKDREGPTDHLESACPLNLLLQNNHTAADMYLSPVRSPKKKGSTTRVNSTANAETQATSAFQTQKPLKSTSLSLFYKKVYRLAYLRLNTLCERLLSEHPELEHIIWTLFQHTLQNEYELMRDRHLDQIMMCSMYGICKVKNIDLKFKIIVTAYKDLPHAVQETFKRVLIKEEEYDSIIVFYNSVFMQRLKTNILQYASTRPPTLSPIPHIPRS

T2: Rb^P S751C (human, UniProt P06400 380-788, S751C)
T2 construct: also called variant 71
T2 sequence (looked up): T1 sequence (looked up) with L216P, S372C

T3: Rb^P H699P (human, UniProt P06400 380-788, H699P)
T3 construct: also called variant 63
T3 sequence (looked up): T1 sequence (looked up) with L216P, H320P

T4: Rb^P V754G (human, UniProt P06400 380-788, V754G)
T4 construct: also called variant 73
T4 sequence (looked up): T1 sequence (looked up) with L216P, V375G

T5: Rb^P E693A (human, UniProt P06400 380-788, E693A)
T5 construct: also called variant 60
T5 sequence (looked up): T1 sequence (looked up) with L216P, E314A

B1: TMR-E2F1^TD, peptide of the E2F1 transactivation domain (peptide)
peptide: {TMR}-GEGIRDLFDCDFGDLTPLD
notes: also called E2F^TD; source: synthetic peptide, bought: GenScript
B2: TMR-E7^LxCxE, LxCxE peptide of the E7 oncoprotein from HPV (peptide)
peptide: DLYCYEQLN
modifications: also: TMR label, position not given here
notes: source: synthetic peptide, bought: GenScript

What was measured:
Test in all cases: fluorescence polarisation; 25 °C; unlabeled Rb^P titrated against 1.5 nM TMR-E2F1^TD or 7.5 nM TMR-E7^LxCxE; 25 mM Tris pH 8.0, 200 mM NaCl, 1 mM DTT, 0.1% Tween-20; 2 min incubation; quadratic fit; apparent Kd for the variants, Kd for WT
Conditions in all cases: both partners purified
Rb^P P595L = molecular target: T1, Rb^P P595L
Rb^P S751C = molecular target: T2, Rb^P S751C
Rb^P H699P = molecular target: T3, Rb^P H699P
Rb^P V754G = molecular target: T4, Rb^P V754G
Rb^P E693A = molecular target: T5, Rb^P E693A

Binder | Kd (Rb^P P595L) | Kd (Rb^P S751C) | Kd (Rb^P H699P) | Kd (Rb^P V754G) | Kd (Rb^P E693A)
B1 | 46 nM | 66 nM | 35 nM | 20 nM | 42 nM
B2 | 14 nM | 44 nM | 6 nM | 7 nM | 7 nM
